Measured values as given in article PMC3229241, “Neoamphimedine Circumvents Metnase-Enhanced DNA Topoisomerase IIα Activity Through ATP-Competitive Inhibition” (2011).

Substrate: Nc1ncnc2c1ncn2[C@@H]1O[C@H](COP(=O)(O)OP(=O)(O)OP(=O)(O)O)[C@@H](O)[C@H]1O
Assay: malachite green ATP hydrolysis assay, Michaelis-Menten Km
Format: biochemical, Homo sapiens
Conditions: Mg2+ N-terminal ATPase site

B1: Type IIα DNA topoisomerase (TopoIIα) (Homo sapiens) (protein)
chain: MEVSPLQPVNENMQVNKIKKNEDAKKRLSVERIYQKKTQLEHILLRPDTYIGSVELVTQQMWVYDEDVGINYREVTFVPGLYKIFDEILVNAADNKQRDPKMSCIRVTIDPENNLISIWNNGKGIPVVEHKVEKMYVPALIFGQLLTSSNYDDDEKKVTGGRNGYGAKLCNIFSTKFTVETASREYKKMFKQTWMDNMGRAGEMELKPFNGEDYTCITFQPDLSKFKMQSLDKDIVALMVRRAYDIAGSTKDVKVFLNGNKLPVKGFRSYVDMYLKDKLDETGNSLKVIHEQVNHRWEVCLTMSEKGFQQISFVNSIATSKGGRHVDYVADQIVTKLVDVVKKKNKGGVAVKAHQVKNHMWIFVNALIENPTFDSQTKENMTLQPKSFGSTCQLSEKFIKAAIGCGIVESILNWVKFKAQVQLNKKCSAVKHNRIKGIPKLDDANDAGGRNSTECTLILTEGDSAKTLAVSGLGVVGRDKYGVFPLRGKILNVREASHKQIMENAEINNIIKIVGLQYKKNYEDEDSLKTLRYGKIMIMTDQDQDGSHIKGLLINFIHHNWPSLLRHRFLEEFITPIVKVSKNKQEMAFYSLPEFEEWKSSTPNHKKWKVKYYKGLGTSTSKEAKEYFADMKRHRIQFKYSGPEDDAAISLAFSKKQIDDRKEWLTNFMEDRRQRKLLGLPEDYLYGQTTTYLTYNDFINKELILFSNSDNERSIPSMVDGLKPGQRKVLFTCFKRNDKREVKVAQLAGSVAEMSSYHHGEMSLMMTIINLAQNFVGSNNLNLLQPIGQFGTRLHGGKDSASPRYIFTMLSSLARLLFPPKDDHTLKFLYDDNQRVEPEWYIPIIPMVLINGAEGIGTGWSCKIPNFDVREIVNNIRRLMDGEEPLPMLPSYKNFKGTIEELAPNQYVISGEVAILNSTTIEISELPVRTWTQTYKEQVLEPMLNGTEKTPPLITDYREYHTDTTVKFVVKMTEEKLAEAERVGLHKVFKLQTSLTCNSMVLFDHVGCLKKYDTVLDILRDFFELRLKYYGLRKEWLLGMLGAESAKLNNQARFILEKIDGKIIIENKPKKELIKVLIQRGYDSDPVKAWKEAQQKVPDEEENEESDNEKETEKSDSVTDSGPTFNYLLDMPLWYLTKEKKDELCRLRNEKEQELDTLKRKSPSDLWKEDLATFIEELEAVEAKEKQDEQVGLPGKGGKAKGKKTQMAEVLPSPRGQRVIPRITIEMKAEAEKKNKKKIKNENTEGSPQEDGVELEGLKQRLEKKQKREPGTKTKKQTTLAFKPIKKGKKRNPWSDSESDRSSDESNFDVPPRETEPRRAATKTKFTMDLDSDEDFSDFDEKTDDEDFVPSDASPPKTKTSPKLSNKELKPQKSVVSDLEADDVKGSVPLSSSPPATHFPDETEITNPVPKKNVTVKKTAAKSQSSTSTTGAKKRAAPKGTKRDPALNSGVSQKPDPAKTKNRRKRKPSTSDDSDSNFEKIVSKAVTSKKSKGESDDFHMDFDSAVAPRAKSVRAKKPIKYLEESDEDDLF
notes: recombinant human TopoIIα
- Km: 390 ± 50 µM
